Among the data in article PMC3137622 are other: Biotinylated mAb 7C11 bound to Bla g 2 (%), response (Absorbance (405 nm)) and other: Biotinylated mAb 4C3 bound to Bla g 2 (%) values, retold here.

Test [1] concerns the target monoclonal antibody 7C11 (anti-Bla g 2). The test can be described thus: competition ELISA. The following applies: chain shown with the change, solid phase rBla g 2-N93Q, read off a plot. A general note: In an ELISA, binding on a coated surface is turned into a signal by an enzyme label.
Test [2] shares this target. The test can be described thus: ELISA dose-response. The following applies: chain shown with the change, read off a plot.
Test [3] addresses monoclonal antibody 4C3 (anti-Bla g 2). The test can be described thus: competition ELISA. The following applies: chain shown with the change, solid phase rBla g 2-N93Q, read off a plot.
The target is the same in test [4]. Nature of the test: ELISA dose-response. The following applies: chain shown with the change, read off a plot.
[5] abbreviates: competitor concentration 0.1 µg/ml, parent: est. 47.
[6] abbreviates: competitor concentration 1 µg/ml, parent: est. 5.
The mark [7] stands for this setting: allergen concentration 100 ng/ml, parent: est. 1.8.
Setting [8] is: competitor concentration 10 µg/ml, parent: est. 1.
[9] abbreviates: competitor concentration 100 µg/ml, parent: est. 0.
Setting [10] is: competitor concentration 100 µg/ml, parent: est. 1.
The mark [11] stands for this setting: allergen concentration 100 ng/ml, parent: est. 0.48.
[12] abbreviates: competitor concentration 1 µg/ml, parent: est. 32.
Where [13] appears, read: competitor concentration 10 µg/ml, parent: est. 5.
Where [14] appears, read: allergen concentration 100 ng/ml, parent: est. 1.5.
The mark [15] stands for this setting: allergen concentration 100 ng/ml (read on the curve line), parent: est. 1.8.
Setting [16] is: competitor concentration 0.1 µg/ml.
[17] abbreviates: competitor concentration 1 µg/ml.
The mark [18] stands for this setting: allergen concentration 100 ng/ml, parent: est. 1.3.
Setting [19] is: competitor concentration 0.1 µg/ml, parent: est. 82.
[20] abbreviates: allergen concentration about 400 ng/ml (highest point of the series), parent: est. 1.9.

Positions count from the first letter of the chain named. Names and notes keep the numbering of the source.

monoclonal antibody 4C3 (anti-Bla g 2), sequence (chain, as listed by the source, chain 1 of 2): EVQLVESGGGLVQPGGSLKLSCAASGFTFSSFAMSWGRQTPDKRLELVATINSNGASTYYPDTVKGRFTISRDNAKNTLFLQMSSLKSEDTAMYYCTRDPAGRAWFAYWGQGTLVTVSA
monoclonal antibody 4C3 (anti-Bla g 2), sequence (chain, as listed by the source, chain 2 of 2): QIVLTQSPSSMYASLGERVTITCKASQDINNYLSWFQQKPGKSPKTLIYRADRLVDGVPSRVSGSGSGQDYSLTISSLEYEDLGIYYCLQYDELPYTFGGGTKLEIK
monoclonal antibody 7C11 (anti-Bla g 2), sequence (chain, as listed by the source, chain 2 of 2, other chains not shown): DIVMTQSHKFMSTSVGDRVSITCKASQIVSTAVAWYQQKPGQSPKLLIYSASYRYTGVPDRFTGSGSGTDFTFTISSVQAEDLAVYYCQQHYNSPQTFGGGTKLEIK

B1: recombinant Bla g 2-N93Q R83A (protein)
chain: VPLYKLVHVFINTQYAGITKIGNQNFLTVFDSTSCNVVVASQECVGGACVCPNLQKYEKLKPKYISDGNVQVKFFDTGSAVGAGIEDSLTISQLTTSQQDIVLADELSQEVCILSADVVVGIAAPGCPNALKGKTVLENFVEENLIAPVFSIHHARFQDGEHFGEIIFGGSDWKYVDGEFTYVPLVGDDSWKFRLDGVKIGDTTVAPAGTQAIIDTSKAIIVGPKAYVNPINEAIGCVVEKTTTRRICKLDCSKIPSLPDVTFVINGRNFNISSQYYIQQNGNLCYSGFQPCGHSDHFFIGDFFVDHYYSEFNWENKTMGFGRSVESV
B1: the values for the other: Biotinylated mAb 7C11 bound to Bla g 2 (%) in test [1] (setting [5]) and in test [1] (setting [6]) were 82% and 13%, respectively. Also, the response (Absorbance (405 nm)) in test [2] (setting [7]) was 1.5.

B2: recombinant Bla g 2-N93Q E86A (protein)
chain: B1 chain with A83R, E86A
B2: the other: Biotinylated mAb 7C11 bound to Bla g 2 (%) in test [1] (setting [5]) amounted to 82%; in test [1] (setting [6]) it was 18%. Further, in test [2] (setting [7]), the response (Absorbance (405 nm)) amounted to 1.5.

B3: recombinant Bla g 2-N93Q K132A (protein)
chain: B1 chain with A83R, K132A
Take B3: the other: Biotinylated mAb 7C11 bound to Bla g 2 (%) in test [1] (setting [5]) is 100%; in test [1] (setting [6]) it was 100%; in test [1] (setting [8]) it was 99%; in test [1] (setting [9]), 70%. Moreover, the response (Absorbance (405 nm)) came out at 0.12 in test [2] (setting [7]) and 0.15 in test [2] (allergen concentration about 400 ng/ml (highest point of the series), parent: est. 1.8).

B4: recombinant Bla g 2-N268Q E233R; I199W (protein)
chain: B1 chain with A83R, Q93N, I200W, E233R, N271Q
For the molecule B4, the other: Biotinylated mAb 4C3 bound to Bla g 2 (%) in test [3] (competitor concentration 0.1 µg/ml, parent: est. 88) came to 93%; in test [3] (competitor concentration 1 µg/ml, parent: est. 46) it was 82%; in test [3] (competitor concentration 10 µg/ml, parent: est. 7) it was 78%; in test [3] (setting [10]) it was 62%. Further, the response (Absorbance (405 nm)) in test [4] (setting [11]) was 0.2; in test [4] (allergen concentration about 400 ng/ml (highest point of the series), parent: est. 1.1), 0.4.

B5: recombinant Bla g 2-N93Q E233A (protein)
chain: B1 chain with A83R, E233A
On to B5, for which the other: Biotinylated mAb 4C3 bound to Bla g 2 (%) in test [3] (setting [12]) amounted to 58%; in test [3] (setting [13]), 15%. Also, the response (Absorbance (405 nm)) in test [4] (setting [14]) amounted to 1.

B6: recombinant Bla g 2-N93Q K65A (protein)
chain: B1 chain with K63A, A83R
For B6, the values for the other: Biotinylated mAb 7C11 bound to Bla g 2 (%) in test [1] (setting [5]), in test [1] (setting [6]) and in test [1] (setting [8]) were 91%, 47% and 11%, respectively. Further, the response (Absorbance (405 nm)) in test [2] (setting [15]) was 0.3; in test [2] (allergen concentration about 4000 ng/ml (highest point of the series)), 1.2.

B7: recombinant Bla g 2-N93Q D68aA (protein)
chain: B1 chain with D67A, A83R
Regarding B7, the results for the other: Biotinylated mAb 7C11 bound to Bla g 2 (%) in test [1] (setting [5]), in test [1] (setting [6]) and in test [1] (setting [9]) were 98%, 82% and 5%, respectively. The response (Absorbance (405 nm)) in test [2] (setting [15]) is 0.48; in test [2] (allergen concentration about 4000 ng/ml (highest point of the series; curve at plateau)), 0.73.

B8: natural Bla g 2 N268Q (protein)
chain: B1 chain with A83R, Q93N, N271Q
With B8, the other: Biotinylated mAb 4C3 bound to Bla g 2 (%) in test [3] (setting [16]) was 88%; in test [3] (setting [17]), 46%; in test [3] (competitor concentration 10 µg/ml) it was 7%. The response (Absorbance (405 nm)) in test [4] (setting [18]) was found to be 0.48.

B9: recombinant Bla g 2-N93Q E233R; I199W (protein)
chain: B1 chain with A83R, I200W, E233R
Take B9: the other: Biotinylated mAb 4C3 bound to Bla g 2 (%) in test [3] (setting [19]) was 100%; in test [3] (setting [12]), 100%; in test [3] (setting [13]), 69%; in test [3] (setting [10]) it was 22%. The figures for the response (Absorbance (405 nm)) in test [4] (setting [14]) and in test [4] (setting [20]) were 0.14 and 0.27, respectively.

B10: recombinant Bla g 2-N93Q K251A (protein)
chain: B1 chain with A83R, K254A
For the molecule B10, the other: Biotinylated mAb 4C3 bound to Bla g 2 (%) worked out at 100% in test [3] (setting [19]), 100% in test [3] (setting [12]), 93% in test [3] (setting [13]) and 60% in test [3] (setting [10]). The response (Absorbance (405 nm)) in test [4] (setting [14]) is 0.14; in test [4] (setting [20]), 0.27.

B11: recombinant Bla g 2-N93Q E233R (protein)
chain: B1 chain with A83R, E233R
With B11, the other: Biotinylated mAb 4C3 bound to Bla g 2 (%) in test [3] (setting [19]) was found to be 72%. Besides, in test [4] (setting [14]), the response (Absorbance (405 nm)) worked out at 1.7.

B12: recombinant Bla g 2-N268Q E233R (protein)
chain: B1 chain with A83R, Q93N, E233R, N271Q
As for B12, in test [4] (setting [11]), the response (Absorbance (405 nm)) came out at 1.2.

B13: natural Bla g 2 N93Q (protein)
chain: B1 chain with A83R
B13: the other: Biotinylated mAb 4C3 bound to Bla g 2 (%) came out at 82% in test [3] (setting [16]) and 32% in test [3] (setting [17]). In addition, in test [4] (setting [18]), the response (Absorbance (405 nm)) turned out to be 1.5.

B14: recombinant Bla g 2-N93Q D248A (protein)
chain: B1 chain with A83R, D251A
For B14, the values for the other: Biotinylated mAb 4C3 bound to Bla g 2 (%) in test [3] (setting [19]) and in test [3] (setting [12]) were 48% and 7%, respectively. Also, the response (Absorbance (405 nm)) in test [4] (setting [14]) was found to be 1.8.
